Drawing on publication PMC6283417, “The structure of the RbBP5 β-propeller domain reveals a surface with potential nucleic acid binding sites”, this text covers binding result and Kd for two molecules.

The target of series [1] is T1, RbBP5 beta-propeller (1-340) wild type (mouse, UniProt Q8BX09 1-340). In words: NMR 1H-15N HSQC titration; marginally stronger than 7N-RNA pool; Anisotropy: 50 mM Tris pH 7.4, 150 mM NaCl, 0.5 mM DTT, 20 C; NMR conditions not in the material. The settings on record: protein: recombinant; tags: 6xHis-SUMO removed by 3C protease.
T1 sequence (Q8BX09 1-340): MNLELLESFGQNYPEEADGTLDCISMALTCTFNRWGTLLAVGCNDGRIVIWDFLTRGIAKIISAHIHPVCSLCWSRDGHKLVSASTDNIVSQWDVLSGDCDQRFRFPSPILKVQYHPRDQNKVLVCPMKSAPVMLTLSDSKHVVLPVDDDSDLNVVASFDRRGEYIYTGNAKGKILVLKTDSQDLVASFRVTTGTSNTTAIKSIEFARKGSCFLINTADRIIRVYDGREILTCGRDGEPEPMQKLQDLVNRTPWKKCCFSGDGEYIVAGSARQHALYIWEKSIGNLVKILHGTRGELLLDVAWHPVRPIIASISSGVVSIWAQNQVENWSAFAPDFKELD
For series [2], the target named is T1, RbBP5 beta-propeller (1-340) wild type. In words: fluorescence anisotropy; Anisotropy: 50 mM Tris pH 7.4, 150 mM NaCl, 0.5 mM DTT, 20 C; NMR conditions not in the material. As to conditions: protein: recombinant; tags: 6xHis-SUMO removed by 3C protease; label: 6-FAM (3'). For orientation: In fluorescence polarisation assays a small probe gives low polarisation when free and higher when bound to something large.

B1: SIA optimized RNA 7-mer (ssRNA)
RNA: UAGGUUC
B1: the binding result in series [1] is listed as “binds”.

B2: 14-mer ssRNA-6FAM (ssRNA)
RNA: GCAUAGGUUCGAUC
One may read the Kd as the constant that tells how readily two partners part at equilibrium. On to B2, for which the Kd in series [2] was 22.5 ± 3.2 µM.
